Assay results reported in the Human Domainome abundance scans (Beltran et al. 2025).

B1: RanBP-type and C3HC4-type zinc finger-containing protein 1, residues 369 to 411; numbered along this chain, Q9BYM8 (parent)
chain: YHCKTPDCKGWCFFEDDVNEFTCPVCFHVNCLLCKAIHEQMNC

Variants of: B1
Experiment: abundance fitness (aPCA) (normalised: wild type 0, dead -1); higher = more abundant; growth selection in yeast, the domain comes from the species named
Details: Homo sapiens

Abundance fitness of substitutions, site by site:
C31: N -0.532; E -0.611; D -0.54; K -0.758; S -0.438; Y -0.154; M -0.725
F21: C -0.186; S 0.07; E -0.501; N -0.321; Y -0.06; V 0.06; P -0.688; Q -0.205; I -0.039; R -0.359; T 0.03; K -0.285
K35: C -0.069; R -0.021; V -0.406; A -0.147; Q -0.026; Y -0.273; W -0.385; G 0.067; L -0.321; D -0.156
C3: M -0.978; E -0.984; D -0.969; S -0.831; N -0.666; F -1.12
I37: A -0.152; Q -0.077; D -0.107
T5: V -0.083; P -0.764; C -0.063; Q -0.004; S -0.054; A -0.131; M 0.003; G -0.308; E -0.184; H -0.159
D7: L -0.2; S -0.165; I -0.812; V -0.597; F -0.245; W -0.469; R -0.117; G 0.057; C -0.656
F13: S 0.066; K -0.084; A 0.124; G -0.279; C -0.111; E 0.428
E15: P -0.153; Q -0.096; T -0.042; H -0.321; V -0.238; S -0.254; I -0.187
N42: W -0.069; P 0.219; H 0.138; M -0.101; T 0.069; R -0.008; S 0.006; F -0.415
K9: Q -0.033; H -0.259; A 0.029
Q40: E 0.107; F -0.54; S 0.023; H -0.031; P 0.005; V -0.32; L -0.452; D 0.043; N 0.036; R -0.022
D16: C -0.182; E 0.026; A 0.006; T -0.088; G -0.075; N -0.171; P 0.113; S -0.14
F14: Q -0.295; S -0.165
H2: A -0.285; S -0.072; Y 0.105; D -0.275; K 0.095; I -0.265; C -0.103; F 0.029; E -0.554
C12: E -0.854; V 0.071; R -0.193; Y 0.04
L33: N -0.116; I -0.158; H -0.062; D -0.148; Y -0.088; K 0.138; C -0.213; M 0.033; S -0.065
N19: R 0.014; K 0.09; A -0.023; P -0.276; Q 0.052; W -0.152; S 0.024; D -0.052; L -0.081
C43: H -0.23; N -0.511; K -0.37; E -0.427; I -0.511; R -0.323
C26: K -0.834; L -0.792; P -1; A -0.713; D -0.567; S -0.804; W -1.07; H -0.537
G10: D -0.764; H -0.359; A -0.541; S -0.587; Y -0.343; V -0.779; T -0.494
D17: I -0.265; G 0.116; T -0.077; K 0.079; H -0.021; C -0.215; V 0.034
P6: E -0.185; I -0.411; C -0.709; L -0.365; M -0.23; A -0.115; F -0.493
C34: G -0.467; S -0.488; K -0.623; P -0.174; R -0.683; A -0.733; N -0.536; Y -0.875; E -0.312; M -0.881
V29: Q -0.311; C -0.265; K -0.109; I -0.453; W -0.319; E -0.34; L -0.215; S -0.257; R -0.105; G -0.562
C8: Q -0.736; S -0.682; M -0.843; R -0.908; E -0.784; W -0.949
A36: R -0.015; F -0.848; M -0.266; T 0.005; G 0.051; V -0.28; S 0.01; Y -0.83; I -0.331; L -0.534; K -0.084; C -0.154
T22: N -0.32; Q -0.118; L -0.146; W -0.422; C -0.149; G -0.658; I -0.243; M -0.29
C23: E -0.82; L -0.89; S -0.904; G -0.891; R -0.771; A -0.794; H -0.786
M41: Q 0.15; A 0.178; W -0.035; H 0.043; F -0.2; S 0.156
Y1: A -0.18; L -0.453; D 0.004; I 0.051; N -0.408
L32: A -0.231; N -0.131; F -0.407; T -0.015; M -0.264; Y -0.302; P -0.525; E -0.366
E39: Q -0.012; V -0.155; T 0.021; G 0.024; C -0.27; D 0.03; H -0.167
V18: D -0.222; T -0.01; E 0.001; P 0.048; Q 0.06; G -0.276; M -0.14; H -0.277
V25: W -0.406; R -0.242; H -0.093; M -0.298; K -0.112; S -0.225; D -0.142; I -0.057; Y -0.221; A -0.136
W11: C -0.088; E 0.184; A -0.006
H28: E 0.005; R 0.011; W -0.592; Q 0.059; P -0.912; T -0.041
K4: F 0.028; Y -0.084; E -0.359; S -0.14; A 0.012; M 0.201; W -0.083; G -0.222; P -0.527; L 0.124
N30: S -0.797; G -0.811; P -0.784; V -1.04; R -0.8; H -0.42; T -0.57; I -0.835; E -0.891
E20: C -0.303; T -0.119; Q -0.206; M -0.1; H -0.332; A -0.311; D -0.347; N -0.276; K -0.202
F27: S -0.11; V -0.536; G 0.115; H 0.155; T -0.068; D -0.004; E -0.184; K 0.108; R 0.005
P24: N -0.233; E -0.277; K -0.287; A -0.558; Q -0.099; L -0.681; C -0.658; G -0.389; V -0.774
H38: T -0.639; Q -0.63; W -1; S -0.614; E -0.46; I -0.881; C -0.774; F -0.59; M -0.89; D -0.482; A -0.689; R -0.699; G -0.536; L -1.14; Y -0.721
